Peptide text beside a SMILES is read from it. * marks the point of attachment. Cbz = O=C(OCc1ccccc1)*; CH2F = FC*

The source of these data is US6610541B2, “Recombinant, active caspases and uses thereof” (Thomas Jefferson University, priority 1998, dated 2003).

One assay concerns the target T1, rev-caspase-3 (Homo sapiens, UniProt P42574).
T1 sequence (P42574 with tags, fused parts or gaps): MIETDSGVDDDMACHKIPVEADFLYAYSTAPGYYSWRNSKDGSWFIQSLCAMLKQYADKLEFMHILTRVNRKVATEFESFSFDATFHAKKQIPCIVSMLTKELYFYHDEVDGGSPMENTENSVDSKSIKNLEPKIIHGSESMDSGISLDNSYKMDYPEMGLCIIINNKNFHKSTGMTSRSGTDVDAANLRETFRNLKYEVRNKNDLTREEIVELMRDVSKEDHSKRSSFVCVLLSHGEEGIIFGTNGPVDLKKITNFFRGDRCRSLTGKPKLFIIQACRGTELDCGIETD
Briefly: Autocatalytic processing of in vitro translated rev-caspase-3 (SDS-PAGE/autoradiography). Also on record: T7-tag (15 residues) (N); made in house; host or cells: in vitro translation in rabbit reticulocyte lysate (TNT Kit, Promega). Type of assay: biochemical. Here is the method: (§1) FIGS. 2B and C are scanned images of autoradiograms representing SDS-PAGE analysis of the autoprocessing of rev-caspase-3 and -6, respectively in the presence of varying levels of selected caspase inhibitors. Rev-caspase-3 (FIG. 2B) or rev-caspase-6 (FIG. 2C) were in vitro translated in the presence of increasing concentrations of DEVD-CHO […]; (SEQ ID NO:52), or zVAD-fmk (0-5 μM). The translation products were then analyzed as in FIG. 2A. WT, wild-type.
(§2) ^35S-labeled caspases (wild-type and rev-caspases) were obtained by in vitro translation in the presence of ^35S-methionine using a coupled transcription/translation system in rabbit reticulocyte lysate using TNT Kit (Promega) according to the manufacturer's recommendations.
(§3) To test the effect of selected caspase inhibitors on the autocatalytic activity of rev-caspase-3 and 6, the rev-caspases were translated as in Example 3, but in the presence of varying amounts of inhibitors.

A further assay concerns the target T2, rev-caspase-6 (Homo sapiens, UniProt P55212).
T2 sequence (P55212 with tags, fused parts or gaps): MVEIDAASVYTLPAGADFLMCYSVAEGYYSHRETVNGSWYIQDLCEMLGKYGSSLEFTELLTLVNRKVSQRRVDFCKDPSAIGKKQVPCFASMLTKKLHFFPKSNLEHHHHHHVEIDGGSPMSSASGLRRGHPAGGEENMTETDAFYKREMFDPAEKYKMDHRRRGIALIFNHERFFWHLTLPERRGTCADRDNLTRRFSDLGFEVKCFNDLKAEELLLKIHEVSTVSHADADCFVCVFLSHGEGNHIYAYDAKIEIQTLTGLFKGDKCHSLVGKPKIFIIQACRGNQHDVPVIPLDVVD
Kind of assay: Autocatalytic processing of in vitro translated rev-caspase-6 (SDS-PAGE/autoradiography). Type of assay: biochemical. Also on record: T7-tag (15 residues) (N); made in house; host or cells: in vitro translation in rabbit reticulocyte lysate (TNT Kit, Promega). The following applies: at the concentration used (zVAD-fmk 0-5 μM); p35 data not shown. On the procedure:
as §1, §2, §3

For a further assay, the system named is MCF-7 cells. Kind of assay: Induction of apoptosis in transfected MCF-7 cells (round blue apoptotic cells). Type of assay: cell-based, human. Here is the method:
FIGS. 4A and B are bar diagrams representing the ability of rev-caspase-3 and -6 to induce apoptosis in MCF-7 cells. MCF-7 cells were transiently transfected with either rev-caspase-3 (FIG. 4A), or rev-caspase-6 (FIG. 4B) expression constructs in combination with 4-fold of CrmA, p35 or Bcl-2 expression constructs, or 20 μM zVAD-fmk. Cells transfected with an empty vector or the wild-type caspase-3 or -6 were used as controls.
To express the rev-caspases in mammalian cells and assay their apoptotic activity, they were amplified with the T7-tag primer and the LS-reverse primers using the pET28a constructs as templates, and subcloned into the mammalian double expression vector pRSC-LacZ (MacFarlane et al., J. Biol. Chem., 272: 25417-25420, 1997; Tsang et al., Bio/Technology, 22: 68, 1997). This vector allows the expression of lacZ under the Rous Sarcoma virus promoter, and the test cDNA under the CMV promoter. To assay for apoptosis, MCF-7 or 293 cells were transfected, using the method commercially available as the Lipofect Amine method (Life Technologies, Inc.), with the pRSC-LacZ constructs in the presence or absence of different apoptosis-inhibitors. 30 h after transfection cells were stained with β-galactosidase and examined for morphological signs of apoptosis. The percentage of round blue apoptotic cells (mean±SD) were represented as a function of total blue cells under each condition (n≧3).
To determine the apoptotic activity of rev-caspase-3 and 6 in vivo, the rev-caspases were expressed in human MCF-7 cells, transfected as explained above in Example 2.

Another assay has as its system human PARP. Kind of assay: Cleavage of PARP by bacterially expressed caspases (Western blot). It counts as biochemical. The conditions noted are these: BL-21 bacterial extracts, 2 h at 37° C. Here is the method:
(§4) FIGS. 3A and B are scanned images representing the SDS-PAGE analysis of the ability of rev-caspase-3 (imaged by western blot) and -6 (imaged by autoradiogram) to cleave PARP and lamin, respectively. In FIG. 3A purified human PARP was incubated with buffer (lane 1) or BL-21 bacterial extracts prepared from bacteria transformed with caspase-3 (lane 2), rev-caspase-3 (lane 3), caspase-6 (lane 4), rev-caspase-6 (lane 5) constructs or empty pET28a vector (lane 6) for 2 h at 37° C. The reaction products were then analyzed by SDS-PAGE and Western blotting with anti-human PARP antibody. In FIG. 3B a cDNA encoding the C-terminus of lamin A (amino acids) which contain the caspase-6 cleavage site (VEIDA); (SEQ ID NO:116), was amplified by PCR and in vitro translated in the presence of ^35S-methionine. The labeled product was incubated with buffer (lane 1) or the BL-21 bacterial extracts listed above for 2 h at 37° C., and then analyzed by SDS-PAGE and autoradiography. The cleavage products are indicated to the right.
(§5) At limited caspase concentrations, poly(ADP) ribose polymerase (PARP) is specifically cleaved by caspase-3 and 7 but not other caspases. Similarly, lamin is specifically cleaved by caspase-6 but not other caspases. […]

In assay [1] the target is T3, uncleavable rev-caspase-3 (Homo sapiens, UniProt P42574, D28A/D9A).
T3 construct: uncleavable rev-caspase-3 (B); made in house; host or cells: in vitro translation in rabbit reticulocyte lysate (TNT Kit, Promega)
T3 sequence (P42574 with tags, fused parts or gaps D9A/D28A): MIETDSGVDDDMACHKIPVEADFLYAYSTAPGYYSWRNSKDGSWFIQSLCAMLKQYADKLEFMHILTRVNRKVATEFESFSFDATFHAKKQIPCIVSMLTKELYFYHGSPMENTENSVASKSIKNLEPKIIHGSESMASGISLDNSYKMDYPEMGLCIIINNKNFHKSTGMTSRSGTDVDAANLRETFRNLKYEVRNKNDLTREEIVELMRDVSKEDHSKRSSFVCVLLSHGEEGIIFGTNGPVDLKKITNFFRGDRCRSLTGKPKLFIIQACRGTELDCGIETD
Briefly: In vitro translation of uncleavable rev-caspase-3: His6-T7-tag processing. Type of assay: biochemical. From the text: FIG. 5A is a scanned image of an autoradiogram representing SDS-PAGE analysis of the enzymatic activity of uncleavable rev-caspase-3. Uncleavable rev-caspase-3 was in vitro translated in the absence or the presence of increasing concentrations of DEVD-CHO (SEQ ID NO:52),. The translation product contains a cleavable 35 residues-long His6-T7-tag at its N-terminus. The active site mutant rev-caspase-3 (Rev C/A) was used as a control. The p32 cleavage product without the His6-T7-tag is indicated to the right.
^35S-labeled caspases (wild-type and rev-caspases) were obtained by in vitro translation in the presence of ^35S-methionine using a coupled transcription/translation system in rabbit reticulocyte lysate using TNT Kit (Promega) according to the manufacturer's recommendations. […] Because the in vitro translated products are present at very low concentration in the reaction mixture, the observed cleavage must be attributed to an intramolecular processing within the caspase heterotetramer.
However, to follow the activity of this molecule a cleavable 35 residue long His6-T7-tag N-terminal to the IETD (SEQ ID NO:53) site was introduced (see FIG. 1B). […] Nevertheless, the translated molecule was active as evident from its ability to cleave its T7-tag to form the p32 species (FIG. 5). In the presence of 400 nM DEVD-CHO (SEQ ID NO:52), processing of the T7-tag was inhibited and only the full length p34 species can be seen. […] Thus by mimicking the mature caspase structure, it is possible to design a contiguous active caspase molecules.

The next assay relates to lamin A. Briefly: Cleavage of in vitro translated lamin A C-terminus by bacterially expressed caspases. It counts as biochemical. The conditions noted are these: BL-21 bacterial extracts, 2 h at 37° C. Here is the method:
as §4, §5

On to `COC(=O)C[C@H](NC(=O)[C@H](C)NC(=O)[C@@H](NC(=O)OCc1ccccc1)C(C)C)C(=O)CF` [z-VAD-fmk] (Cbz-Val-Ala-Asp(OMe)-CH2F), for which, at rev-caspase-3 (at the concentration used (zVAD-fmk 0-5 μM), p35 data not shown), the “inhibitory effect on rev-caspase-3 autocatalytic activity compared with rev-caspase-6” value was “nearly an equal inhibitory effect”. Moreover, the “amount required relative to DEVD-CHO to obtain complete inhibition of caspase-3 activity” value on rev-caspase-3 (in vitro translation of rev-caspase-3) was around 10 fold. Besides, the “inhibitory effect on rev-caspase-6 autocatalytic activity compared with rev-caspase-3” value on rev-caspase-6 is “nearly an equal inhibitory effect”.

B1: rev-caspase-3: contiguous caspase-3 with small subunit fused N-terminal to large subunit, DEVDG cleavage site between them (SEQ ID NO:34) (protein)
chain: T1 sequence (P42574 with tags, fused parts or gaps)
modifications: OTHER INFORMATION: Rev-Caspase-3 contructed fro m human caspase -3
On to B1, for which the “apoptosis in transfected cells” value in the assay on MCF-7 cells (30 h after transfection) is on record as around 90%. In addition, in the assay on human PARP, the “cleavage of PARP” value was “efficiently cleaved PARP”. The “autocatalytic processing in the in vitro translation reaction (rev-caspase-3 constructs)” value with rev-caspase-3 (rabbit reticulocyte lysate, 35S-methionine) is “able to undergo autocatalytic processing”.

B2: wild-type caspase-3: wild-type human caspase-3 (SEQ ID NO:12) (protein)
chain: MENTENSVDSKSIKNLEPKIIHGSESMDSGISLDNSYKMDYPEMGLCIIINNKNFHKSTGMTSRSGTDVDAANLRETFRNLKYEVRNKNDLTREEIVELMRDVSKEDHSKRSSFVCVLLSHGEEGIIFGTNGPVDLKKITNFFRGDRCRSLTGKPKLFIIQACRGTELDCGIETDSGVDDDMACHKIPVDADFLYAYSTAPGYYSWRNSKDGSWFIQSLCAMLKQYADKLEFMHILTRVNRKVATEFESFSFDATFHAKKQIPCIVSMLTKELYFYH
With B2, the “cleavage of PARP” value in the assay with human PARP is on record as “efficiently cleaved PARP”.

B3: Noncleavable Rev-caspase-3: rev-caspase-3 with DEVD site removed and Asp9 and 28 mutated (SEQ ID NO:35) (protein)
chain: T3 sequence (P42574 with tags, fused parts or gaps D9A/D28A)
modifications: OTHER INFORMATION: Uncleavable Rev-Caspase-3 co ntructed from human caspase -3
Regarding B3, in the assay on MCF-7 cells, the “induction of apoptosis on expression in cells” value is “potently induced apoptosis”. Moreover, in assay [1], the “activity of translated molecule (cleaves its T7-tag to form the p32 species)” value is reported as “active” and the “cleavage between the two subunits upon in vitro translation” value is “no evidence of cleavage between the two subunits”.

B4: wild-type caspase-6: wild-type human caspase-6 (SEQ ID NO:21) (protein)
chain: MSSASGLRRGHPAGGEENMTETDAFYKREMFDPAEKYKMDHRRRGIALIFNHERFFWHLTLPERRGTCADRDNLTRRFSDLGFEVKCFNDLKAEELLLKIHEVSTVSHADADCFVCVFLSHGEGNHIYAYDAKIEIQTLTGLFKGDKCHSLVGKPKIFIIQACRGNQHDVPVIPLDVVDNQTEKLDTNITEVDAASVYTLPAGADFLMCYSVAEGYYSHRETVNGSWYIQDLCEMLGKYGSSLEFTELLTLVNRKVSQRRVDFCKDPSAIGKKQVPCFASMLTKKLHFFPKSN
Turning to B4, the cleavage of lamin entry in the assay with lamin A is given as “efficiently cleaved lamin”.
